Assay results published in patent US20190160028A1.

Target: Nluc-NS2B (49-66) (named as Nluc-E66stop) (firefly; Dengue virus serotype 2 (DENV2)) [luciferase: P08659]
Sequence (P08659 whole entry): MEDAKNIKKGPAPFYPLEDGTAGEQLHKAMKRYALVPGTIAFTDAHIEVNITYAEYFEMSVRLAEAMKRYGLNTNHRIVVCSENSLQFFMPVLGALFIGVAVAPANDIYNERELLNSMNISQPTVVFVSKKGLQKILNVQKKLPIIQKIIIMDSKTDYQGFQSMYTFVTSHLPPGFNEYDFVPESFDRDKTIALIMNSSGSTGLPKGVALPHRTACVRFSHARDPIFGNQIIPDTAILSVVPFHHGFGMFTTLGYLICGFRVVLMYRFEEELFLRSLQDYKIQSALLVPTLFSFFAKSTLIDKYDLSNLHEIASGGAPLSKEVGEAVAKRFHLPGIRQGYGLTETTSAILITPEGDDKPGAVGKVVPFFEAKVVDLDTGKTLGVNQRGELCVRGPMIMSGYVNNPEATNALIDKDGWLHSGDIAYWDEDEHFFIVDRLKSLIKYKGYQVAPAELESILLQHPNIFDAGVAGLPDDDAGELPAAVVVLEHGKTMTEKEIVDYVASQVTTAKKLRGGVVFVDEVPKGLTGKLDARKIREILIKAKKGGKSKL

Work on “His-tagged maltose-binding protein (MBP) fused to DENV2 NS3 protein (His-MBP-NS3) (from UniProt P14337 1476-1654) (enzyme)” yielded an affinity of 2.5 µM.
